Results: paper PMC2878840

Target: hypoglycosylated E-cadherin variant V13 (V13-flag) (human)
Assay: co-IP

**Q.** “protein phosphatase 2A catalytic subunit (from UniProt A0A8I3NN81 1-306) (enzyme)” was tested. Which fold change of co-precipitated PP2A against wild type E-cadherin did it give?
**A.** 2 fold
